Data published in IntAct's records for PubMed 10601328.

B1: Receptor-type tyrosine-protein phosphatase R (Homo sapiens), Q15256 (parent)
chain: MRRAVCFPALCLLLNLHAAGCFSGNNDHFLAINQKKSGKPVFIYKHSQDIEKSLDIAPQKIYRHSYHSSSEAQVSKRHQIVNSAFPRPAYDPSLNLLAMDGQDLEVENLPIPAANVIVVTLQMDVNKLNITLLRIFRQGVAAALGLLPQQVHINRLIGKKNSIELFVSPINRKTGISDALPSEEVLRSLNINVLHQSLSQFGITEVSPEKNVLQGQHEADKIWSKEGFYAVVIFLSIFVIIVTCLMILYRLKERFQLSLRQDKEKNQEIHLSPITLQPALSEAKTVHSMVQPEQAPKVLNVVVDPQGRGAPEIKATTATSVCPSPFKMKPIGLQERRGSNVSLTLDMSSLGNIEPFVSIPTPREKVAMEYLQSASRILTRSQLRDVVASSHLLQSEFMEIPMNFVDPKEIDIPRHGTKNRYKTILPNPLSRVCLRPKNVTDSLSTYINANYIRGYSGKEKAFIATQGPMINTVDDFWQMVWQEDSPVIVMITKLKEKNEKCVLYWPEKRGIYGKVEVLVISVNECDNYTIRNLVLKQGSHTQHVKHYWYTSWPDHKTPDSAQPLLQLMLDVEEDRLASQGRGPVVVHCSAGIGRTGCFIATSIGCQQLKEEGVVDALSIVCQLRMDRGGMVQTSEQYEFVHHALCLYESRLSAETVQ

Variants of: B1
Settings: with mk14_human MAPK14, Q16539
mk14_human MAPK14, Q16539, sequence (Q16539 whole entry): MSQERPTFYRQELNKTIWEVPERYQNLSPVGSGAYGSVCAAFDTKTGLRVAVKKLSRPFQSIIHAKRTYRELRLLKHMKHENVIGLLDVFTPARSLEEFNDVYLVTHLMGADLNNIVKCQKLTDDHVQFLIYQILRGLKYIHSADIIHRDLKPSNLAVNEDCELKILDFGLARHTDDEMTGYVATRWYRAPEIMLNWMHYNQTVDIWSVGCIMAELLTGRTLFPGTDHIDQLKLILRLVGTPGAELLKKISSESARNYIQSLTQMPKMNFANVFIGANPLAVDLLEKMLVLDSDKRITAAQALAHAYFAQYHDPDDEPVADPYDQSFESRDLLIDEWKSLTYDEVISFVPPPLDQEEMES
In the case of S339E, the “effect of a mutation on the interaction” value is reported as “disrupting interaction”.
